How the values were obtained:
[1] = molecular target: T1, recombinant biotinylated CD38 protein (Homo sapiens (Human), UniProt P28907 43-300, biotinylated (site not stated)); experiment: BLI (Octet), biotinylated recombinant CD38 on streptavidin sensors, seven nanobody concentrations, 1:1 model
T1 construct: also called biotinylated CD38 antigen; biotin-labelled recombinant CD38 protein

[2] = molecular target: T2, human CD38 receptor expressed on RPMI-8226 multiple myeloma cells and other CD38+ cell lines (human, UniProt P28907 1-300); experiment: saturation binding of radiolabelled nanobody on CD38+ RPMI-8226 cells, 1 hour at 4 C
T2 construct: Endogenous CD38 on human cell lines; also called cyclic ADP-Ribose Hydrolase 1; ADPRC1

B1: anti-CD38 nanobody 2F8 (Nb2F8) with C-terminal hexahistidine tag (VHH)
VHH: QVQLVESGGGSVQAGGSLRLSCAASGYTDSDYIMAWFRQAPGKEREVVATIYIGGTYIHYADSVKGRFTISRDNAENTVYLQMNNLKPEDTAMYYCAATKWRPFISTRAAEYNYWGQGTLVTVSS
notes: also called sdAb 2F8
[1]
  Kd: 0.7 nM

B2: 111In-DTPA-Nb2F8 (untagged Nb2F8 conjugated to CHX-A''-DTPA and labelled with Indium-111) (VHH)
VHH: B1 VHH
modifications: CHX-A''-DTPA conjugated to the free epsilon-amino groups of lysines; chelated Indium-111
notes: also called m In-DTPA-Nb2F8; ul In-DTPA-Nb2F8
[2]
  Kd: 16.7 nM

Reference: patent WO2021229104A1 (dated 2021)
